According to patent US20260274910A1, “SINGLE FUSION PROTEIN AND PHARMACEUTICAL COMPOSITION” (MEDI&GENE INC., priority 2023, published 2026):

How the values were obtained:
plasma proteins = assay: Plasma protein binding test (PPB); type: in vitro ADME, mice; settings: mouse plasma, 5 uM, 37° C., 4 hours, 100 kD filter, western blot
Procedure: Such an increase in half-life was further confirmed by measuring plasma protein binding rates (Plasma protein binding test, PPB). […] Each of the plasma of the mice and the fusion protein (SEQ ID NO: 13), and or His tag-wild-type substance (1-81) (SEQ ID NO: 5) was incubated at a concentration of 5 uM at 37° C. for 4 hours. After that, they were centrifuged with a 100 kD filter to obtain fractions of the substance bound to the plasma proteins or fractions of the unbound substance. Each of the obtained fractions was evaluated by western blot.

[1] = system: Akt and S6 (phosphorylation, p-Akt/p-S6) in C2C12 mouse skeletal muscle cell line; assay: Akt and S6 phosphorylation (western blot) in C2C12 muscle cells; type: cell-based; settings: 2 hours
Procedure: In order to evaluate functions related to muscle loss diseases, each test substance was treated to the undifferentiated C2C12 mouse skeletal muscle cell line (mouse myoblast cell line) or the cell line in which differentiation into myotubes was completed. Differentiation of the cell line into myotubes was performed by conducting addition of 2% horse serum to culture medium and replacement with new medium every two days for a total of 4 days.
To the undifferentiated or differentiated cell lines, the test substances, fusion proteins (SEQ ID NOs: 1, 2, 3, 7, 14 and 15) were treated at a concentration of 100 nM (Control: PBS treated group) for 2 hours. Thereafter, the cells were immediately washed once and the cells were lysed with RIPA buffer (Radioimmunoprecipitation assay buffer). The activity of Akt and S6 (phosphorylation, p-Akt/p-S6) was observed by western blot. Akt phosphorylation is a well-known marker of activation of cell signaling pathways, and is an indicator of beneficial effects on muscle cells such as promotion of glucose metabolism and promotion of muscle biosynthesis. Similarly, S6 phosphorylation is a well-known marker of mTOR activity, and the activity of mTOR is an indicator showing muscle biosynthesis and various cell signaling pathways.

[2] = system: follicular cells (dermal papilla cells); assay: Follicular cell proliferation by MTT assay; type: cell-based; settings: 100 nM, 24 hours; compared with Control (PBS)
Procedure: Whether the test substances of the present invention has effects on preventing hair loss or promoting hair growth was evaluated as follows. Specifically, it was observed whether they have efficacy of improving loss of follicular cells in scalp tissue which is a cause of hair loss, or hair growth due to an increase in hair follicles, by using dermal papilla cells and evaluating cell proliferation of follicular cells.
The follicular cells were treated with each test substance 100 nM (control: PBS) for 24 hours, and the degree of cell proliferation was evaluated by MTT assay.

3T3-L1 adipocytes = assay: Lipid droplet analysis (BODIPY 493/503, confocal) in 3T3-L1 adipocytes; type: cell-based, mouse; settings: differentiated 3T3-L1 adipocytes, 100 nM, 30 hours
Procedure: To observe the functionality of the fusion proteins related to lipid metabolism, the 3T3-L1 mouse pre-adipocyte cell line was used as the cell line itself (undifferentiated) or by differentiating into adipocytes. Differentiation into the adipocytes was performed by inducing primary differentiation for the 3T3-L1 cells in a medium containing DMEM, 10% FBS, 10 μg/ml insulin, 0.5 mM IBMX (3-Isobutyl-1-methylxanthine), and 1 μM dexamethasone for 2 days, and inducing secondary differentiation with a medium containing DMEM, 10% FBS, and 10 μg/ml insulin for the remaining 4 days. The adipocytes in which differentiation was finally completed were treated with the test substances at a concentration of 100 nM for 30 hours (Control: PBS) and then used for each test.
In addition, lipid droplets of adipocytes were stained with BODIPY 493/503 dye sample, and then confocal image scanning was performed to analyze the size and diameter of the lipid droplets.

[3] = mouse, in vivo, 2.5 mg/kg
Procedure: For evaluation, ten-week-old C57BL/6 mice were used, and the mice were reared in a specialized animal facility which provided a normal diet and a 12/12 hour night/day cycle and then used for experimentation.
The synthetic peptide (SEQ ID NO: 8) and fusion protein (SEQ ID NO: 13) were each injected into the mice at a concentration of 2.5 mg/kg, and blood was collected at 0, 0.5, 2, 4, 24 hours after injection. The collected blood was centrifuged and the obtained plasma was analyzed. At this time, in order to perform effective quantification of the substances, each substance was conjugated with Dylight 680 Near-Infrared dye (NIR) in advance prior to injection, and the finally collected blood samples were examined by observing fluorescent signals with a SpectraMax i3 microplate reader device.

[4] = C2C12 differentiated into myotubes, 100 nM, control PBS
[5] = Table 6, C2C12, 100 nM, differentiation state not given
[6] = undifferentiated C2C12, 100 nM, control PBS

B1: His tag Human ATPIF1 (protein)
chain: MGSHHHHHHSSGLVPRGSHMGSDQSENVDRGAGSIREAGGAFGKREQAEEERYFRAQSREQLAALKKHHEEEIVHHKKEIERLQKEIERHKQKIKMLKHDD
notes: Recombinant protein: His tag-wild-type substance (1-81), control group
Binding rate with the plasma proteins (plasma proteins): 5%
Activity (% increase compared to control) Differentiated Akt [1, 4]: 248%
Activity (% increase compared to control) Differentiated S6 [1, 4]: 262%
Activity (% increase compared to control) Akt [1, 5]: 254%
Activity (% increase compared to control) S6 [1, 5]: 217%
Activity (% increase compared to control) Undifferentiated Akt [1, 6]: 165%
Activity (% increase compared to control) Undifferentiated S6 [1, 6]: 207%
Cell viability (MTT, cell proliferation) [2]: significantly increased

B2: Human ATPIF1 (peptide, listed as Homo sapiens)
chain: GSDQSENVDRGAGSIREAGGAFGKREQAEEERYFRAQSREQLAALKKHHEEEIVHHKKEIERLQKEIERHKQKIKMLKHDD
Lipid droplet size (3T3-L1 adipocytes): reduced at a significant level
Maximum lipid droplet diameter per cell (3T3-L1 adipocytes): reduced at a significant level
Total lipid droplet area (3T3-L1 adipocytes): reduced at a significant level
Half-life [3]: 1.6 h
